Reference: patent US20210355194A1 (TWIST BIOSCIENCE, published 2021)
Where “and” joins values, the source holds several entries; their conditions need not be identical. Identical values can stand only once. Like-named read-outs stand apart in the source and are kept apart here.

Experiments:
[1] = target: T1, human ACE2 (human, UniProt Q9BYF1 18-740)
[2] = target: T1, human ACE2; remark: listed apart in the source
[3] = target: T2, SARS-CoV-2 S1 protein (SARS-CoV-2, UniProt P0DTC2 16-685); experiment: ELISA binding titration on coated antigen
T2 construct: also called SARS-CoV-2 Spike Glycoprotein S1; S1 (subunit 1)

[4] = target: T2, SARS-CoV-2 S1 protein; experiment: Carterra SPR, Fc capture, S1
[5] = target: T2, SARS-CoV-2 S1 protein; experiment: phage ELISA screen on S1, mean
[6] = target: T2, SARS-CoV-2 S1 protein; experiment: Carterra SPR, DB format, S1
[7] = target: T2, SARS-CoV-2 S1 protein; experiment: inhibitor ELISA, competitor ACE2
[8] = target: S protein trimer (SARS-CoV-2, UniProt P0DTC2 14-1208); experiment: ELISA, plate coated with S protein trimer
[9] = target: T3, SARS-CoV-2 antigen of the epitope binning (SARS-CoV-2, UniProt P0DTC2 16-685); experiment: epitope binning; competitor 1-16
T3 construct: also called S1

[10] = target: T3, SARS-CoV-2 antigen of the epitope …; experiment: epitope binning; competitor 2-6
[11] = target: T3, SARS-CoV-2 antigen of the epitope …; experiment: epitope binning; competitor 2-8
[12] = target: T4, SARS-CoV-2 S protein RBD, SPD-C5259 (SARS-CoV-2, UniProt P0DTC2 319-537); experiment: FACS, inhibition of S protein RBD binding to Vero cells
T4 construct: domain: RBD

[13] = target: T3, SARS-CoV-2 antigen of the epitope …; experiment: epitope binning; competitor 2-5
[14] = target: T3, SARS-CoV-2 antigen of the epitope …; experiment: epitope binning; competitor CR3022
[15] = target: T3, SARS-CoV-2 antigen of the epitope …; experiment: epitope binning; competitor 1-32
[16] = target: T3, SARS-CoV-2 antigen of the epitope …; experiment: epitope binning; competitor 1-35
[17] = target: T3, SARS-CoV-2 antigen of the epitope …; experiment: epitope binning; competitor Acro mAb
[18] = target: T3, SARS-CoV-2 antigen of the epitope …; experiment: epitope binning; competitor 2-11
[19] = target: T3, SARS-CoV-2 antigen of the epitope …; experiment: epitope binning; competitor 2-2
[20] = target: T5, SARS-CoV-2 Spike Glycoprotein S1 (SARS-CoV-2, UniProt P0DTC2 16-685); experiment: ELISA, plate coated with S1
T5 construct: also called S1 Monomer

[21] = target: T2, SARS-CoV-2 S1 protein; experiment: phage ELISA screen on S1, mean; remark: listed apart in the source

T1 sequence (Q9BYF1 18-740 limits assumed): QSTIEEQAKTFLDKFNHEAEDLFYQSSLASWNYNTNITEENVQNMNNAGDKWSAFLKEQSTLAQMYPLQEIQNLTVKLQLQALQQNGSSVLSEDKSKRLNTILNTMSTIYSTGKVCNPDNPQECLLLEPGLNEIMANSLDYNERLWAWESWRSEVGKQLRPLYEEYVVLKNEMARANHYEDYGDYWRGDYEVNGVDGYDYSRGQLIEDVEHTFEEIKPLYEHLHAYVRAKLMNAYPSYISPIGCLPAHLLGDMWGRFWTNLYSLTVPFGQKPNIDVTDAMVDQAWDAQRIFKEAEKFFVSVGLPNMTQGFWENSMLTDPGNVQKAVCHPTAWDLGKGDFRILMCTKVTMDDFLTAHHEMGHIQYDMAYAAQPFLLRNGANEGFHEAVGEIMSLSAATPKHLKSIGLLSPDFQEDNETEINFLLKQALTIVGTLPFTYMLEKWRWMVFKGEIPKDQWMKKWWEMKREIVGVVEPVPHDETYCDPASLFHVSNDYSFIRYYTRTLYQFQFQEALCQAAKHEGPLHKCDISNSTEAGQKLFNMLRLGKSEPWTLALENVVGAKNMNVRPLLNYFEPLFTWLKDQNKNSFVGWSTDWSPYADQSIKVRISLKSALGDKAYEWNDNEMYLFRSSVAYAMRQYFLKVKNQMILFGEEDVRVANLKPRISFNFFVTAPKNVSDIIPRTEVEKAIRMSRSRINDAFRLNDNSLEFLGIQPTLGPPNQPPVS

B1: 4-140 (VHH)
VHH: EVQLVESGGGLVQPGGSLRLSCAASGRTFSNAAMGWFRQAPGKEREFVARITWNGGSTFYADSVKGRFTISADNSKNTAYLQMNSLKPEDTAVYYCATTENPNPRWGQGTLVTVSS
[1]
  Kd: 8.9 nM
[2]
  IC50: 3.07 nM

B2: 4-39 (VHH)
VHH: EVQLVESGGGLVQPGGSLRLSCAASGRTFSNAAMGWFRQAPGKEREFVARILWTGASRNYADSVKGRFTISADNSKNTAYLQMNSLKPEDTAVYYCATTENPNPRWGQGTLVTVSS
[1]
  Kd: 17.5 nM
[2]
  IC50: 1.15 nM

B3: 4-54 (VHH)
VHH: EVQLVESGGGLVQPGGSLRLSCAASGRTFSDARMGWFRQAPGKEREFVGAVSWSGGTTVYADSVKGRFTISADNSKNTAYLQMNSLKPEDTAVYYCATTEDPYPRWGQGTLVTVSS
[1]
  Kd: 645 nM
[2]
  IC50: 2 nM

B4: 4-101 (VHH)
VHH: EVQLVESGGGLVQPGGSLRLSCAASGRTFSNAAMGWFRQAPGKEREFVARILWTGASRSYADSVKGRFTISADNSKNTAYLQMNSLKPEDTAVYYCATTENPNPRWGQGTLVTVSS
[1]
  Kd: 5.8 nM
[2]
  IC50: 0.568 nM

B5: 2-2 (antibody, V domains shown)
VH: EVQLLESGGGLVQPGGSLRLSCAASGFTFSRHAMNWVRQAPGKGLEWVSGISGSGDETYYADSVKGRFTISRDNSKNTLYLQMNSLRAEDTAVYYCARDLPASYYDSSGYYWHNGMDVWGQGTLVTVSS
VL: DIQMTQSPSSLSASVGDRVTITCRASQTINTYLNWYQQKPGKAPKLLIYSASTLQSGVPSRFSGSGSGTDFTLTISSLQPEDFATYYCQQSYSTFTFGQGTKVEIK
notes: also called variant 2-2
[3]
  EC50: 0.612 nM
[4]
  Kd: 58.3 nM
[5]
  ELISA(Avg): 23.4 fold over background
[6]
  Kd: 11.7 nM
[7]
  IC50: 3.6 nM

B6: 2-2 (antibody, V domains shown)
VH: EVQLLESGGGLVQPGGSLRLSCAASGFTFSRHAMNWVRQAPGKGLEWVSGISGSGDETYYADSVKGRFTISRDNSKNTLYLQMNSLRAEDTAVYYCARDLPASYYDSSGYYWHNGMDVWGQGTLVTVSS
VL: DIQMTQSPSSLSASVGDRVTITCRASQTINTYLNWYQQKPGKAPKLLIYSASTLQSGVPSRFSGSGSGTDFTLTISSLQPEDFATYYCQQSYSTFTFGQGTKVEIK
[8]
  S Trimer: 0.64 nM
[9]
  epitope binning score: 0
[10]
  epitope binning score: 2
[11]
  epitope binning score: 0
[12]
  IC50: 3 nM
[13]
  epitope binning score: 0
[14]
  epitope binning score: 0
[15]
  epitope binning score: 2
[16]
  epitope binning score: 1
[17]
  epitope binning score: 0
[18]
  epitope binning score: 0
[19]
  epitope binning score: 0
[20]
  S1 Monomer: 0.13 nM

B7: 4-17 (VHH)
VHH: EVQLVESGGGLVQPGGSLRLSCAASGQLANFASYAMGWFRQAPGKEREFVAAITRSGSSTVYADSVKGRFTISADNSKNTAYLQMNSLKPEDTAVYYCATTMNPNPRWGQGTLVTVSS
[1]
  Kd: 18.8 nM and 30.6 nM
[2]
  IC50: 0.721 nM

B8: 2-2 (second entry, printed after 2-19) (antibody, V domains shown)
VH: EVQLLESGGGLVQPGGSLRLSCAASGFTFSSYDMSWVRQAPGKGLEWVSVISGSGGSTYYADSVKGRFTISRDNSKNTLYLQMNSLRAEDTAVYYCAKGPLVGWYFDLWGQGTLVTVSS
VL: DIQMTQSPSSLSASVGDRVTITCTGTSSNVGSYNLVSWYQQKPGKAPKLLIYEGTKRPSGVPSRFSGSGSGTDFTLTISSLQPEDFATYYCCSYAGSSSFVVFGQGTKVEIK
[3]
  EC50: 100 nM
[5]
  ELISA(Avg): 12.8 fold over background
[21]
  ELISA(Avg): 12.8 fold over background

B9: 2-5 (antibody, V domains shown)
VH: EVQLLESGGGLVQPGGSLRLSCAASGFTFSDFAMAWVRQAPGKGLEWVSAISGSGDITYYADSVKGRFTISRDNSKNTLYLQMNSLRAEDTAVYYCAREADGLHSPWHFDLWGQGTLVTVSS
VL: DIQMTQSPSSLSASVGDRVTITCRASQSIHTYLNWYQQKPGKAPKLLIYAASALASGVPSRFSGSGSGTDFTLTISSLQPEDFATYYCQQSYSAPPYTFGQGTKVEIK
notes: also called variant 2-5
[3]
  EC50: 0.133 nM
[4]
  Kd: 1.9 nM
[5]
  ELISA(Avg): 30.8 fold over background
[6]
  Kd: 2.8 nM
[7]
  IC50: 4.2 nM

B10: 2-12 (antibody, V domains shown)
VH: EVQLLESGGGLVQPGGSLRLSCAASGFTFSDYPMNWVRQAPGKGLEWVSTISGSGGITFYADSVKGRFTISRDNSKNTLYLQMNSLRAEDTAVYYCVRHDEYSFDYWGQGTLVTVSS
VL: DIQMTQSPSSLSASVGDRVTITCRASQSIDNYLNWYQQKPGKAPKLLIYGVSALQSGVPSRFSGSGSGTDFTLTISSLQPEDFATYYCQQSHSAPPYFFGQGTKVEIK
notes: also called variant 2-12
[5]
  ELISA(Avg): 18.2 fold over background
[7]
  IC50: 1 nM

B11: 2-8 (antibody, V domains shown)
VH: EVQLLESGGGLVQPGGSLRLSCAASGFTFSDFAMAWVRQAPGKGLEWVSAISGSGDITYYADSVKGRFTISRDNSKNTLYLQMNSLRAEDTAVYYCAREADGLHSPWHFDLWGQGTLVTVSS
VL: DIQMTQSPSSLSASVGDRVTITCRASQSIDTYLNWYQQKPGKAPKLLIYAASALASGVPSRFSGSGSGTDFTLTISSLQPEDFATYYCQQSYSAPPYTFGQGTKVEIK
[8]
  S Trimer: 7.08 nM
[9]
  epitope binning score: 1
[10]
  epitope binning score: 1
[11]
  epitope binning score: 0
[12]
  IC50: 19.5 nM
[13]
  epitope binning score: 0
[14]
  epitope binning score: 0
[15]
  epitope binning score: 1
[16]
  epitope binning score: 1
[17]
  epitope binning score: 1
[18]
  epitope binning score: 1
[19]
  epitope binning score: 0
[20]
  S1 Monomer: 1.52 nM

B12: 2-4 (antibody, V domains shown)
VH: EVQLLESGGGLVQPGGSLRLSCAASGFTFSDFAMAWVRQAPGKGLEWVSAISGSGDITYYADSVKGRFTISRDNSKNTLYLQMNSLRAEDTAVYYCAREADGLHSPWHFDLWGQGTLVTVSS
VL: DIQMTQSPSSLSASVGDRVTITCRASQSIDTYLNWYQQKPGKAPKLLIYAASALASGVPSRFSGSGSGTDFTLTISSLQPEDFATYYCQQSYSAPPYTFGQGTKVEIK
[8]
  S Trimer: 10.2 nM
[12]
  IC50: 46.3 nM
[20]
  S1 Monomer: 1.58 nM

B13: 2-13 (antibody, V domains shown)
VH: EVQLLESGGGLVQPGGSLRLSCAASGFTFSDYPMNWVRQAPGKGLEWVSAISGSGDNTYYADSVKGRFTISRDNSKNTLYLQMNSLRAEDTAVYYCVRHDEYSFDYWGQGTLVTVSS
VL: DIQMTQSPSSLSASVGDRVTITCRASQSIDTYLNWYQQKPGKAPKLLIYGASALESGVPSRFSGSGSGTDFTLTISSLQPEDFATYYCQQSHSAPPYFFGQGTKVEIK
notes: also called variant 2-13
[5]
  ELISA(Avg): 19.1 fold over background
[7]
  IC50: 45 nM

B14: 2-5 (antibody, V domains shown)
VH: EVQLLESGGGLVQPGGSLRLSCAASGFTFSDFAMAWVRQAPGKGLEWVSAISGSGDITYYADSVKGRFTISRDNSKNTLYLQMNSLRAEDTAVYYCAREADGLHSPWHFDLWGQGTLVTVSS
VL: DIQMTQSPSSLSASVGDRVTITCRASQSIHTYLNWYQQKPGKAPKLLIYAASALASGVPSRFSGSGSGTDFTLTISSLQPEDFATYYCQQSYSAPPYTFGQGTKVEIK
[8]
  S Trimer: 0.59 nM
[9]
  epitope binning score: 1
[10]
  epitope binning score: 1
[11]
  epitope binning score: 0
[12]
  IC50: 4.4 nM
[13]
  epitope binning score: 0
[14]
  epitope binning score: 0
[15]
  epitope binning score: 1
[16]
  epitope binning score: 1
[17]
  epitope binning score: 1
[18]
  epitope binning score: 1
[19]
  epitope binning score: 0
[20]
  S1 Monomer: 0.17 nM

B15: 2-17 (antibody, V domains shown)
VH: EVQLLESGGGLVQPGGSLRLSCAASGFTFSNYAMSWVRQAPGKGLEWVSAISGSAGSTYYADSVKGRFTISRDNSKNTLYLQMNSLRAEDTAVYYCARVRQGLRRTWYYFDYWGQGTLVTVSS
VL: DIQMTQSPSSLSASVGDRVTITCTGTSSDVGSSNLVSWYQQKPGKAPKLLIYEGSKRPSGVPSRFSGSGSGTDFTLTISSLQPEDFATYYCCSYAGSLYVFGQGTKVEIK
notes: also called variant 2-17
[3]
  EC50: 100 nM
[5]
  ELISA(Avg): 3.5 fold over background
[21]
  ELISA(Avg): 3.5 fold over background
